{"source": "patent US20150167014A1", "about": "“MODULATION OF PLANT GROWTH BY VAS1 MUTATION” (THE SALK INSTITUTE FOR BIOLOGICAL STUDIES, priority 2013, published 2015)", "molecules": {"B1": {"name": "Arabidopsis thaliana aminotransferase VAS1 (AtVAS1, NCBI Accession No. NP—178152, SEQ ID NO: 14), variant I267M (Ile267Met) (Arabidopsis thaliana; I267M) (protein)", "chain": "MGSFGMLSRRTLGTDMPVMAQIRSLMAELTNPMSLAQGVVHWQPPQKALEKVKELVWDPIISSYGPDEGLPELRQALLKKLREENKLTNSQVMVTAGANQAFVNLVITLCDAGDSVVMFEPYYFNSYMAFQMTGVTNIIVGPGQSDTLYPDADWLERTLSESKPTPKVVTVVNPGNPSGTYVPEPLLKRIAQICKDAGCWLIVDNTYEYFMYDGLKHCCVEGDHIVNVFSFSKTYGMMGWRLGYIAYSERLDGFATELVKIQDNIPMCAAIISQRLAVYALEEGSGWITERVKSLVKNRDIVKEALEPLGKENVKGGEGAIYLWAKLPEGHRDDFKVVRWLAHRHGVVVIPGCASGSPGYLRVSFGGLQEVEMRAAAARLRKGIEELLHHGMVE", "notes": "I267M by QuikChange mutagenesis"}, "B2": {"name": "Arabidopsis thaliana aminotransferase VAS1 (enzyme)", "chain": "B1 chain with M267I", "modifications": "PLP (pyridoxal phosphate) bound as internal aldimine to the epsilon-amino group of Lys 233", "notes": "The protein crystallised as a symmetric homodimer with PLP; also called AtVAS1"}, "B3": {"name": "VAS1: wild-type pyridoxalphosphate-dependent aminotransferase of Arabidopsis thaliana (protein)", "chain": "B1 chain with M267I"}}, "key": {"[1]": {"substrate": "N[C@@H](Cc1c[nH]cn1)C(=O)O", "experiment": "Steady-state kinetic assay of VAS1 I267M transaminase activity (rate of loss of IPA at 321 nm)", "type": "biochemical, Arabidopsis thaliana", "settings": "other: fixed 3-IPA 300 μM, variable L-His 0.1 to 10 mM, 0.4 μM VAS1 I267M, 100 μM PLP, pH 8.0, 23° C.", "description": "(§1) FIG. 9A-B. Steady-state kinetic analyses of VAS1 I267M. […] Fixed concentration of L-His (10 mM) and variable concentrations of 3-IPA from 10 to 200 μM (A) Fixed concentration of 3-IPA (300 μM) and variable concentrations of L-His from 0.1 to 10 mM (B). Apparent KM, Vmax and kcat of VAS1 are shown above each curve and standard errors calculated from Graphpad Prism 5 software (www.graphpad.com).\n(§2) The coding sequence of AtVAS1 was inserted between the NcoI and XhoI sites of the expression vector pHIS8 (“HIS8” disclosed as SEQ ID NO: 1) (a modified version of pET28a (+) containing an N-terminal 8-histidine tag (SEQ ID NO: 1)), which under the control of a T7 promoter. E. coli (BL21) cells harboring the AtVAS1 expression vector were grown in Terrific Broth at 37° C. until reaching an OD600 nm of 1.0 then cooled down to 18° C. and induced with 0.5 mM isopropyl-b-D-thiogalactoside (IPTG) and allowed to grow overnight at 18° C. for approximately 12-14 hr after. Cells were harvested by centrifugation and resuspended in lysis buffer (50 mM Tris-HCl, pH 8.0, 500 mM NaCl, 20 mM imidazole, 1% (v/v) Tween-20, 10% (v/v) glycerol, 10 mM 2-mercaptoethanol) containing lysozyme (0.5 mg/ml) at 4° C. for 1 hr and lysed by sonication. The lysate was centrifuged at 18,000 rpm for 45 min at 4° C. and then the supernatant were passed over Ni2+-NTA agarose (Qiagen). The AtVAS1 protein was eluted with lysate buffer supplemented with 250 mM imidazole after washed with wash buffer (lysis buffer without Tween-20 and glycerol). The N-terminal tag was cleaved by treatment with thrombin while dialyzing overnight in dialysis buffer (50 mM Tris-HCl, (pH8.0), 500 mM NaCl, 20 mM 2-mercaptoethanol). The thrombin and uncut AtVAS1 was removed by passing over Benzamidine Sepharose 4 Fast Flow (high sub) (GE Healthcare) and Ni2+-NTA agarose. AtVAS1 was further purified by size-exclusion chromatography using a Superdex 200 HR16/60 column. AtVAS1 fractions were combined, concentrated to approximately 12 mg ml-1 and frozen at −80° C. […]\n(§3) For VAS1 I267M steady-state kinetic assays, 1 mL assay mixture contained 100 mM sodium phosphate buffer (pH 8.0), 0.4 μM recombinant VAS1 I 267M, 100 μM PLP and variable amounts of His (0.1 to 10 mM) and IPA (10 to 200 μM). The reactions were incubated at 23° C. and the OD321 nm were measured at 2-min, 5-min, 8-min, 10-min, 12-min and 15-min time points to monitor the linear rate of loss of IPA. Absorbance values were corrected to changes in IPA concentration based on an IPA standard curve. At 321 nm, absorbance from Trp was negligible. KM, kcat and Vmax were calculated by nonlinear regression analysis using GraphPad Prism 5 fits to the Michaelis-Menten equation."}, "[2]": {"substrate": "O=C(O)C(=O)Cc1c[nH]c2ccccc12", "experiment": "Steady-state kinetic assay of VAS1 I267M transaminase activity (rate of loss of IPA at 321 nm)", "type": "biochemical, Arabidopsis thaliana", "settings": "other: fixed L-His 10 mM, variable 3-IPA 10 to 200 μM, 0.4 μM VAS1 I267M, 100 μM PLP, pH 8.0, 23° C.", "description": "as §1, §2, §3"}, "[3]": {"target": "the molecule itself", "experiment": "X-ray crystal structure of VAS1•PLP complex"}, "[4]": {"experiment": "Amino donor test of VAS1 variants (19 amino acids, 3-IPA as amino acceptor)", "type": "biochemical, Arabidopsis thaliana", "settings": "19 natural amino acids (except Trp) as amino donor", "description": "VAS1 and its variants transaminase activity was monitor by HPLC-MS with an Agilent 1100 series LC-MSD instrument and an Agilent Zorbax Eclipse XDB-C18 (4.6×150 mm, […]) reversed-phase column. Chromatographic separations employed a flow rate of 0.5 mL min-1 and a linear gradient with initial and final mobile phases consisting of 95% water: 4.9%: acetonitrile: 0.1% formic acid (v/v/v), and 5% water: 94.9% acetonitrile: 0.1% formic acid (v/v/v), respectively. VAS1 mutants relative activity assays were conducted in a 200 μL volume containing 50 mM L-Met (with the exception of L-Trp), 10 mM IPA, 200 μM PLP and 10 μg of purified VAS1 or VAS1 variants protein in a reaction buffer consisting of 50 mM K2HPO4/KH2PO4 (pH 8.5). To further test the best amino donor of I267M and I267F mutant, one of 19 other amino acids (with the exception of L-Trp) was taking the place of L-Met. […] Relative specific activities were calculated after integration of the Trp peak (based on the absorbance at 254 nm) and the activity against Met and IPA was arbitrarily set to 100% for VAS1 variants M19V, M19I, M19F, I267V, 1267 M and I267F. […]"}}, "note": "Where a chain is given by its changes, count along the chain named. Numbers in names are those of the source."}
{"molecule": "B1", "values": [{"measurement": "Km", "setting": "[1]", "result": 534, "unit": "µM"}, {"measurement": "kcat", "setting": "[1]", "result": 0.0392, "unit": "s⁻¹"}, {"measurement": "Km", "setting": "[2]", "result": 62.4, "unit": "µM"}, {"measurement": "kcat", "setting": "[2]", "result": 0.0447, "unit": "s⁻¹"}]}
{"molecule": "B2", "values": [{"measurement": "binding result", "setting": "[3]", "result": "binds"}]}
{"molecule": "B3", "values": [{"measurement": "aminotransferase activity / most efficient amino donor", "setting": "[4]", "result": "Met is the most suitable amino donor"}]}
